Source: publication PMC4821647

T1: Arid5a R128A (Mus musculus, UniProt Q3U108 1-590, R128A)
T1 sequence: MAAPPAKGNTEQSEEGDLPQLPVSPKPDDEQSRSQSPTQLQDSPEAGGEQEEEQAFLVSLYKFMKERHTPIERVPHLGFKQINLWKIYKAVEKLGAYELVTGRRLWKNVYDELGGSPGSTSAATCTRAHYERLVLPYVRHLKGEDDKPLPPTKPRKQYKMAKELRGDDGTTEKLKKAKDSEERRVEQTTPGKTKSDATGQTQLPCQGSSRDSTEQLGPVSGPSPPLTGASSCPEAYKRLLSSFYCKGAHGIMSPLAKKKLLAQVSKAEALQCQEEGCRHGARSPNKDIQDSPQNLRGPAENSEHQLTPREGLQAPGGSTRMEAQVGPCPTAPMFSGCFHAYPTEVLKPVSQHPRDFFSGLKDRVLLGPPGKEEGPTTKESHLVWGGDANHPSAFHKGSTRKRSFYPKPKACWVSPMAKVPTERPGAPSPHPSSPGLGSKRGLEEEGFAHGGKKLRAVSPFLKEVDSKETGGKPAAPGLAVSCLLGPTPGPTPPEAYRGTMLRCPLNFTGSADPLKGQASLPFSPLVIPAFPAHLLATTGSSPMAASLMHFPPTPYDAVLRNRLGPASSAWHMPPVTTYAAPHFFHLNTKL

T2: Arid5a (Mus musculus, UniProt Q3U108 1-590)
T2 sequence: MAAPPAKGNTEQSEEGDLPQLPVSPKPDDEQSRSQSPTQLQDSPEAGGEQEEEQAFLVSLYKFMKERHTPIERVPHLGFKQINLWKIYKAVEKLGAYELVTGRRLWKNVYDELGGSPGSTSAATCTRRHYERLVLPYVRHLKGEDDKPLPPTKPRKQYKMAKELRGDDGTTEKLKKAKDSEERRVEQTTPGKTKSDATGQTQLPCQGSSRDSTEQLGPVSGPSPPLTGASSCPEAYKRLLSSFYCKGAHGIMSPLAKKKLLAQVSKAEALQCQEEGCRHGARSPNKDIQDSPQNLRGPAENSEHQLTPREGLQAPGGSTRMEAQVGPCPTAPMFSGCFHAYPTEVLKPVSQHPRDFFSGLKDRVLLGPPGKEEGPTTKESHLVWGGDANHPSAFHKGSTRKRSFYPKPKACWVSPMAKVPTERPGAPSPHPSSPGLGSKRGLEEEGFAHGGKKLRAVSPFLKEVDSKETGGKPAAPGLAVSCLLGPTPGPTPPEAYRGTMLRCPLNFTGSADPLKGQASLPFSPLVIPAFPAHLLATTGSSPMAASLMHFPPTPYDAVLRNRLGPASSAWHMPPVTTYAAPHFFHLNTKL


Experiments:
[1] = molecular target: T1, Arid5a R128A; assay: EMSA
[2] = molecular target: T2, Arid5a; assay: EMSA

Row | Binder | binding result [1] | binding result [2]
1 | UGCAGUGGCUUGUGUUCUGGCCACUGCA (structured_RNA) [STAT3 3'UTR (1738-1765) stem-loop] | no binding | binds
2 | UGCACACCCUUGUGUUCUGGCCACUGCA (structured_RNA) [mutant stem-loop STAT3 3'UTR (1738-1765)] |  | no binding
